Measurements from patent US20230257722.

Columns and labels:
Assay in all cases: cell_activity
[1] = system: TL4409 SMARCA4 left TALE-FokI (synthetic); conditions: A549, mRNA, pair with pFR
[2] = system: TL4409 SMARCA4 left TALE-SEQ1 nuclease (synthetic); conditions: A549, mRNA, pair with p1R; Table 10 59.7% cleavage
[3] = system: TL4409 SMARCA4 left TALE-SEQ2 nuclease (synthetic); conditions: A549, mRNA, pair with p2R; Table 10 67.6% cleavage
[4] = system: TL4409 SMARCA4 left TALE-SEQ4 nuclease (synthetic); conditions: A549, mRNA, pair with p4R; Table 10 94.5% cleavage
[5] = system: TL4409 SMARCA4 left TALE-SEQ5 nuclease (synthetic); conditions: A549, mRNA, pair with p5R; no cleavage, binding not measured
[6] = system: TL4409 SMARCA4 left TALE-SEQ6 nuclease (synthetic); conditions: A549, mRNA, pair with p6R; Table 10 75.2% cleavage
[7] = system: TL4409 SMARCA4 left TALE-SEQ7 nuclease (synthetic); conditions: A549, mRNA, pair with p7R; no cleavage, binding not measured
[8] = system: TL4409 SMARCA4 left TALE-SEQ8 nuclease (synthetic); conditions: A549, mRNA, pair with p8R; Table 10 70.4% cleavage
[9] = system: TL4412 SMARCA4 right TALE-FokI (synthetic); conditions: A549, mRNA, pair with pFL
[10] = system: TL4412 SMARCA4 right TALE-SEQ1 nuclease (synthetic); conditions: A549, mRNA, pair with p1L; Table 10 59.7% cleavage
[11] = system: TL4412 SMARCA4 right TALE-SEQ2 nuclease (synthetic); conditions: A549, mRNA, pair with p2L; Table 10 67.6% cleavage
[12] = system: TL4412 SMARCA4 right TALE-SEQ4 nuclease (synthetic); conditions: A549, mRNA, pair with p4L; Table 10 94.5% cleavage
[13] = system: TL4412 SMARCA4 right TALE-SEQ5 nuclease (synthetic); conditions: A549, mRNA, pair with p5L; no cleavage, binding not measured
[14] = system: TL4412 SMARCA4 right TALE-SEQ6 nuclease (synthetic); conditions: A549, mRNA, pair with p6L; Table 10 75.2% cleavage
[15] = system: TL4412 SMARCA4 right TALE-SEQ7 nuclease (synthetic); conditions: A549, mRNA, pair with p7L; no cleavage, binding not measured
[16] = system: TL4412 SMARCA4 right TALE-SEQ8 nuclease (synthetic); conditions: A549, mRNA, pair with p8L; Table 10 70.4% cleavage

Sequence	activity [1] [% indels]	activity [2] [% indels]	activity [3] [% indels]	activity [4] [% indels]	activity [5] [% indels]	activity [6] [% indels]	activity [7] [% indels]	activity [8] [% indels]	activity [9] [% indels]	activity [10] [% indels]	activity [11] [% indels]	activity [12] [% indels]	activity [13] [% indels]	activity [14] [% indels]	activity [15] [% indels]	activity [16] [% indels]
GGCGTGTCCCAGGCCCTTGC (double strand) [SMARCA4 left half-site]	74	42	8	87	0	1	0	38	–	–	–	–	–	–	–	–
ACTGAGAGAGTGGACAAGC (double strand) [SMARCA4 right half-site (top strand)]	–	–	–	–	–	–	–	–	74	42	8	87	0	1	0	38
